No end group written: not given here.
Experiments:
Format in all cases: biochemical
[1] = tested on: serine, cysteine and aspartic proteases; assay: Inhibition of proteases of other catalytic types; details: even at tenfold excess; pepsin, papain, trypsin and subtilisin assays, 25 °C, triplicate
Experimental: Inhibitory activities against CPA- and CPB-type forms (bovine and human variants of CPA1, CPA2, CPA4, CPB1, and TAFI) were assayed for all extracts, subject to the experimental conditions that enzyme (E), substrate (S) and inhibitor (I) concentrations as well as the [I]/[E] ratio and preincubation time followed the requirements for tight-binding inhibitor assays. Similar approaches were followed to measure the activities of proteases of different catalytic types, like pepsin, papain, trypsin and subtilisin [45, 46, 47, 48]. All assays were performed in triplicate at 25 °C in a multiplexed manner. For 96-well assays an iEMS spectrophotometer reader/dispenser FM (Labsystems, Finland) was used with a final reaction volume of 250 μL. For cuvette assays, a Cary 400 Bio spectrophotometer (Varian Inc., Palo Alto, CA, USA) spectrophotometer was used with a final reaction volume of 1 ml. The reactions were followed at 5 s intervals for 5 min and recorded as initial velocities. In the protease inhibition assays, mixtures of activity buffer, biological sample and enzyme were preincubated at 25 °C for 10min, before substrate addition. The assay conditions were as follows: for CPA-like enzymes, 7.0nM CPA, 0.1mM AAFP substrate in 20mM Tris-HCl pH 7.5, 500mMNaCl, 1% v/v dimethyl sulfoxide (DMSO), 0.05% w/v BRIJ-35 was used. […]

hCPD = molecular target: T1, hCPD (Homo sapiens, UniProt O75976); assay: Ki determination, tight-binding inhibition of metallocarboxypeptidase; details: NI: No inhibitory activity detected for the [I]0 range from 1 nM to 1 mM
T1 sequence (O75976 32-1380): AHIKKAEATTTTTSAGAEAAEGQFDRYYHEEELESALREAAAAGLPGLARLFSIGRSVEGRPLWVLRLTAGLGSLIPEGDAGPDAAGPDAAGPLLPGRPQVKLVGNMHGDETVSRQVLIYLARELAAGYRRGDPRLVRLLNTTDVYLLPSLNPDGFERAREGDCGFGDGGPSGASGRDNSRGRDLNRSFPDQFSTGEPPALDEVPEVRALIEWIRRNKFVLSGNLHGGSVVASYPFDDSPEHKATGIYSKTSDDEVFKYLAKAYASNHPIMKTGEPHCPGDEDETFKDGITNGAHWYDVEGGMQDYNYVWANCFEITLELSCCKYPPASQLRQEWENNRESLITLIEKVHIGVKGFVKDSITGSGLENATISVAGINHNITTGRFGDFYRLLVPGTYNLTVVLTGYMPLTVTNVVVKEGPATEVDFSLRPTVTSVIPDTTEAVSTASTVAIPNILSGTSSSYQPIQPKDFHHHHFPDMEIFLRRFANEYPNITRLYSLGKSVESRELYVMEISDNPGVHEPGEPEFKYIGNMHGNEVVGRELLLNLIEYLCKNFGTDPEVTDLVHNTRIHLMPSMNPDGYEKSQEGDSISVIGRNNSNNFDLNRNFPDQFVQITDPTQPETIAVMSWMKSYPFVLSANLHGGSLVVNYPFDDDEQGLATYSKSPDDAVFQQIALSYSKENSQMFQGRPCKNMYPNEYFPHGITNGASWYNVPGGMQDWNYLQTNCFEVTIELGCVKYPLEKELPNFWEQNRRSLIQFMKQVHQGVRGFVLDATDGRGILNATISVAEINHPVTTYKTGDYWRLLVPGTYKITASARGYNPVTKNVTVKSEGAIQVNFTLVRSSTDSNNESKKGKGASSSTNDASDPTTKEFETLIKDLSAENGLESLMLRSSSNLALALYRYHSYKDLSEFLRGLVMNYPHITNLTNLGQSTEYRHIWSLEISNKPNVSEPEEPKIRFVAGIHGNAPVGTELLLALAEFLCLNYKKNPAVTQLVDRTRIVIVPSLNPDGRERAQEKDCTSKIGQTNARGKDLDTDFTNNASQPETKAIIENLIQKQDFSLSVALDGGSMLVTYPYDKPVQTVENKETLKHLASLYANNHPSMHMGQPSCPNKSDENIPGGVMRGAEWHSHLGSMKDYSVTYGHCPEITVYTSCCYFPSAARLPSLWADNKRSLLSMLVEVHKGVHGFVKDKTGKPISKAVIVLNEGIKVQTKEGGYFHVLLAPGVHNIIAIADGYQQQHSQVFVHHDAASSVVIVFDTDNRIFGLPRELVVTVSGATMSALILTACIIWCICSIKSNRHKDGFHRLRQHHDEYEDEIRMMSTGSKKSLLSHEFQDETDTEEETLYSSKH
Experimental: (§1) Inhibitory activities against CPA- and CPB-type forms (bovine and human variants of CPA1, CPA2, CPA4, CPB1, and TAFI) were assayed for all extracts, subject to the experimental conditions that enzyme (E), substrate (S) and inhibitor (I) concentrations as well as the [I]/[E] ratio and preincubation time followed the requirements for tight-binding inhibitor assays. Similar approaches were followed to measure the activities of proteases of different catalytic types, like pepsin, papain, trypsin and subtilisin [45, 46, 47, 48]. All assays were performed in triplicate at 25 °C in a multiplexed manner. For 96-well assays an iEMS spectrophotometer reader/dispenser FM (Labsystems, Finland) was used with a final reaction volume of 250 μL. For cuvette assays, a Cary 400 Bio spectrophotometer (Varian Inc., Palo Alto, CA, USA) spectrophotometer was used with a final reaction volume of 1 ml. The reactions were followed at 5 s intervals for 5 min and recorded as initial velocities. In the protease inhibition assays, mixtures of activity buffer, biological sample and enzyme were preincubated at 25 °C for 10min, before substrate addition. The assay conditions were as follows: for CPA-like enzymes, 7.0nM CPA, 0.1mM AAFP substrate in 20mM Tris-HCl pH 7.5, 500mMNaCl, 1% v/v dimethyl sulfoxide (DMSO), 0.05% w/v BRIJ-35 was used. For CPB-like enzymes, CPB 3.0nM CPB, 0.1mM AAFA substrate and activity buffer of 20 mM Tris-HCl pH [50].
(§2) The Ki values of natural and recombinant NvCI against bCPA1, hCPA1, hCPA2, rat CPA3, hCPA4, hCPB1, bTAFI, hTAFI, hCPD and hCPZ were determined by measuring the enzymatic residual activity (Vi/V0 = a) at different inhibitor concentrations and using a fixed enzyme and substrate concentrations as described above, where vi and v0 are the fraction of enzymatic activity in the presence and absence of inhibitor, respectively, in terms of initial velocities. The determination of Ki values was carried out on equilibrium conditions ([E0]/Ki ≤ 10), using a previously determined preincubation time of 15 min, required to establish enzyme-inhibitor equilibrium. Working temperature was 37 °C. The best estimates of Ki values were obtained by fitting the experimental data to the equation for tight-binding inhibitors by non-linear regression using the GraphPad Prisma 5 software (GraphPad Software, Inc., San Diego, CA, USA) at p < 0.05. The real Ki values against each of these A/B-type MCPs were calculated according to the equation described by Morrison and Copeland [19, 20].

hCPB = molecular target: T2, hCPB (Homo sapiens, UniProt P15086); assay: as above; details: tight-binding equation fit, equilibrium conditions; substrate AAFA 0.1mM; preincubation 15 min; 37 °C; means (n = 3) ± SD
T2 sequence (P15086 111-417): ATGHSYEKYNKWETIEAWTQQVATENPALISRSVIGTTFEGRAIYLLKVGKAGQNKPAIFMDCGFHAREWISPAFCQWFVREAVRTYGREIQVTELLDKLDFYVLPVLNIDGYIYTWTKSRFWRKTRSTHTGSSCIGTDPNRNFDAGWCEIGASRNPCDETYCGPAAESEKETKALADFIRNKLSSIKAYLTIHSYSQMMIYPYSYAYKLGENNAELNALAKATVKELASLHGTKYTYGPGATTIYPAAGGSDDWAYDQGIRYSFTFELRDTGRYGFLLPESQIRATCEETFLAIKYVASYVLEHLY
Experimental: as §1, §2

## NvCI: 53-residue, three-disulphide proteinaceous metallocarboxypeptidase inhibitor from the marine snail Nerita versicolor; major isoform; UniProt P86912 (FHVPDDRPCINPGRCPLVPDATCTFVCKAADNDFGYECQHVWTFEGQRVGCYA; disulfide (positions not given here); also: three disulphides, pairing not given here; UniProt P86912 1-53, looked up)
[1]
  inhibition of serine, cysteine and aspartic proteases: unable to inhibit
hCPD
  Ki: > 1000 µM
hCPB
  Ki: 0.000111 ± 4.7e-06 µM

Source: PMC6780499, “Characterization, Recombinant Production and Structure-Function Analysis of NvCI, A Picomolar Metallocarboxypeptidase Inhibitor from the Marine Snail Nerita versicolor” (Marine Drugs, 2019)
